# Source: US10570431B2, “Compositions comprising a polypeptide having cellulolytic enhancing activity and a heterocyclic compound and uses thereof” (priority 2013, dated 2020)
# B1: Penicillium pinophilum GH61A polypeptide: GH61A polypeptide having cellulolytic enhancing activity (SEQ ID NO: 32), recombinantly prepared using Aspergillus oryzae HowB101 as a host (protein, listed as Penicillium pinophilum)
# chain: MPSTKVAALSAVLALASTVAGHGFVQNIVIDGKSYSGYLVNQFPYESNPPAVIGWATTATDLGFVAPSEYTNADIICHKNATPGALSAPVAAGGTVELQWTTWPDSHHGPVISYLANCNGNCSTVDKTKLDFVKIDQGGLIDDTTPPGTWASDKLIAANNSWTVTIPSTIAPGNYVLRHEIIALHSAGNADGAQNYPQCINLEITGSGTAAPSGTAGEKLYTSTDPGILVNIYQSLSTYVIPGPTLWSGAANGAVATGSATAVATTATASATATPTTLVTSVAPASSTFATAVVTTVAPAVTDVVTVTDVVTVTTVITTTVL
# B2: Aspergillus fumigatus GH61B polypeptide: GH61 polypeptide having cellulolytic enhancing activity (SEQ ID NO: 30), recombinantly prepared using Aspergillus oryzae JaL355 as a host (protein, listed as Aspergillus fumigatus)
# chain: MTLSKITSIAGLLASASLVAGHGFVSGIVADGKYYGGYLVNQYPYMSNPPDTIAWSTTATDLGFVDGTGYQSPDIICHRDAKNGKLTATVAAGSQIEFQWTTWPESHHGPLITYLAPCNGDCATVDKTTLKFVKIAAQGLIDGSNPPGVWADDEMIANNNTATVTIPASYAPGNYVLRHEIIALHSAGNLNGAQNYPQCFNIQITGGGSAQGSGTAGTSLYKNTDPGIKFDIYSDLSGGYPIPGPALFNA
# B3: Talaromyces stipitatus GH61A polypeptide: GH61A polypeptide having cellulolytic enhancing activity (SEQ ID NO: 164), recombinantly prepared as described in Example 3 (protein, listed as Talaromyces stipitatus)
# chain: MPSTKVAALSAVLALASTVAGHGFVQNIVIDGKSYTGYLVNQYPYQSNPPAVIGWSTTATDLGFVDGSGYTNPDIICHKNAKPGQLSAPVAAGGKVELEWTTWPESHHGPVISYLANCNGDCTTVDKTKLEFVKIDQRGLIDDSNPPGTWAADQLIAANNSWTVTIPESIAPGNYVLRHEIIALHSANNATGAQNYPQCINLQITGSGTANPSGTPGEKLYTPTDPGILVNIYQSLSSYVIPGPTLWSGAAAHVVATAAGSATGVASATATPTTLVTAVSSPTGAPSVVTPEAPSVTSFAPVVTVTDVVTVTTVITTTIS
# System: Trichoderma reesei cellulase composition
# Experiment: Hydrolysis of AVICEL (microcrystalline cellulose) by the T. reesei cellulase composition, with/without GH61 polypeptide or heterocyclic compound
# Assay type: biochemical
# Details: for heterocyclic compound effect(no GH61) (ratio of percent conversion with compound to without) / heterocyclic compound effect(no GH61): AVICEL; for Percent conversion of AVICEL: GH61 present, no heterocyclic compound, one experiment
# [1] = 1 day, 13.7±0.6% in the absence of GH61
# [2] = 3 days, 28.6±0.4% in the absence of GH61
# [3] = 7 days, 44±1% in the absence of GH61
molecule,measurement,setting,value
C=C(C)CO [2-methyl-2-propen-1-ol],heterocyclic compound effect(no GH61) (ratio of percent conversion with compound to without),"compound 5 mM, 1, 3 and 7 days",decreased later stages of hydrolysis
"O=CC(=O)C[C@H](O)[C@H](O)CO [3-deoxyglucosone, 3-deoxy-D-erythro-hexosulose]",heterocyclic compound effect(no GH61) (ratio of percent conversion with compound to without),"compound 5 mM, 1, 3 and 7 days",~1
Cc1cc(O)no1 [3-hydroxy-5-methylisoxazole],heterocyclic compound effect(no GH61) (ratio of percent conversion with compound to without),"compound 5 mM, 1, 3 and 7 days",~1
O=c1cc(O)c2ccccc2o1 [4-hydroxycoumarin],heterocyclic compound effect(no GH61),"compound 1 mM, 1, 3 and 7 days",very slightly decreased
O=Cc1ccc(CO)o1 [5-(hydroxymethyl)furfural],heterocyclic compound effect(no GH61),"compound 1 mM, 1, 3 and 7 days",greater than 1
"OC[C@H]1OC=C[C@@H](O)[C@@H]1O [D-glucal, 1,5-anhydro-2-deoxy-D-arabino-hex-1-enitol]",heterocyclic compound effect(no GH61) (ratio of percent conversion with compound to without),"compound 5 mM, 1, 3 and 7 days",less than 1
O=C1O[C@H](CO)[C@H](O)[C@H]1O [D-xylonic γ-lactone],heterocyclic compound effect(no GH61),"compound 5 mM, day 1 or 7",~1
O=C1O[C@H](CO)[C@@H](O)[C@H]1O [ribonic γ-lactone],heterocyclic compound effect(no GH61) (ratio of percent conversion with compound to without),"compound 5 mM, 1, 3 and 7 days",less than 1
B1,Percent conversion of AVICEL,[1],14.1±0.4%
same,Percent conversion of AVICEL,[2],28.5±0.5%
same,Percent conversion of AVICEL,[3],46±2%
B2,Percent conversion of AVICEL,[1],13.6±0.2%
same,Percent conversion of AVICEL,[2],29±1%
same,Percent conversion of AVICEL,[3],46±2%
B3,Percent conversion of AVICEL,[1],13.6±0.4%
same,Percent conversion of AVICEL,[2],27.9±0.2%
same,Percent conversion of AVICEL,[3],44.7±0.5%
